Results from patent US20250034253A1 (AKESO BIOPHARMA, published 2025).

Molecular target: T1, human TIGIT-mFc (human; mouse, UniProt Q495A1 22-141, limits assumed)
T1 construct: also called antigen TIGIT-mFc; TIGIT-mnFc
Test: BLI (Fortebio), TIGIT-mFc on AMC sensor, 37 C, 1:1 fit
Procedure: The sample dilution buffer was PBS (0.02% Tween-20, 0.1% BSA, pH 7.4). TIGIT-mFc was immobilized on an AMC sensor at a concentration of […] for 50 s, and the sensor was equilibrated in the buffer for 60 s. The TIGIT-mFc immobilized on the sensor was allowed to bind to the antibody at concentrations of 0.06-5 nM (three-fold dilutions) for 120 s, and the protein was dissociated in the buffer for 300 s. The sensor was regenerated in 10 mM glycine solution (pH=1.7). The detection temperature was 37° C., the detection frequency was 0.3 Hz, and the sample plate shaking rate was 1000 rpm. The data were analyzed by 1:1 model fitting to obtain affinity constants.

T1 sequence (Q495A1 other isoform, or with tags, fused parts or gaps limits assumed): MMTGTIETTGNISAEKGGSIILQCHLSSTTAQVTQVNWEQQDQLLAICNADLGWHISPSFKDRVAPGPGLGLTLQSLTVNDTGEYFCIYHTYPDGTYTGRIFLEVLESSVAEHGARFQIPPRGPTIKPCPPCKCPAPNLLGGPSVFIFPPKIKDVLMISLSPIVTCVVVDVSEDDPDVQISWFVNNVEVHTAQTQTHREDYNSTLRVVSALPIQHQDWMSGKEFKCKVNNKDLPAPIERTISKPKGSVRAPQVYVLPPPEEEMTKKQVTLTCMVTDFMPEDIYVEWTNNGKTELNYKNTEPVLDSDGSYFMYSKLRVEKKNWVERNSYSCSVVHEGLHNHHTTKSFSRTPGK

- Maximum signal height of analyte (nm): 0.16 nm
- S E(kdis): 3.46e-05 s⁻¹
B1: RG6058 (antibody, V domains shown)
VH: EVQLQQSGPGLVKPSQTLSLTCAISGDSVSSNSAAWNWIRQSPSRGLEWLGKTYYRFKWYSDYAVSVKGRITINPDTSKNQFSLQLNSVTPEDTAVFYCTRESTTYDLLAGPFDYWGQGTLVTVSS
VL: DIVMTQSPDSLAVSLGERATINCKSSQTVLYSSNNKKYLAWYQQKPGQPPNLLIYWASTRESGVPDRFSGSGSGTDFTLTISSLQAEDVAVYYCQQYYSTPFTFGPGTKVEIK
